In patent US20130344567, “METHOD FOR IMMOBILISING NUCLEIC LIGANDS” (LFB Biotechnologies, published 2013):

Tests used:
Details in all cases: tags: recombinant human FVII produced in transgenic rabbit milk (FVII-TG)
[1] = molecular target: T1, Factor VII (FVII/FVIIa, active Gla domain) (Homo sapiens, UniProt P08709;P08709 P08709:61-212,P08709:213-466); test: affinity chromatography; 95% of FVII retained and eluted with EDTA (coupling pH 4.2); loading capacity 5.4 mg FVII/ml gel at 5.8 mg/ml aptamer; 50 mM Tris, 10 mM CaCl2, pH 7.5
Description: (§1) The loading capacity (or in other words the retention capacity) of the affinity supports, expressed in mg of FVII per ml of gel, was evaluated by injection of a composition of recombinant human FVII in “Tp5” buffer (50 mM Tris, 10 mM CaCl₂, pH 7.5).
(§2) Table 3 below gives the loading capacity of the affinity supports as a function of the number of aptamers grafted at their surface.

[2] = molecular target: T1, Factor VII (FVII/FVIIa, active Gla …); test: affinity chromatography; loading capacity 8.0 mg FVII/ml gel at 5.6 mg/ml aptamer; FVIIam yield in eluate 76.8%; Tris, 10 mM CaCl2, EDTA elution
Description: as §1, §2

[3] = molecular target: T1, Factor VII (FVII/FVIIa, active Gla …); test: affinity chromatography; FVIIam yield in eluate 73.8%, 1.1% not retained; 50 mM Tris, 10 mM CaCl2, 4 mM MgCl2, pH 7.5; EDTA elution

B1: Mapt 2CS-PEG(C11) (oligo5) (ssDNA)
DNA: ATGCAGCCAGCCGCAGTGTAAGTGAATGCAGACATGGTCTAAGTG
modifications: 5' amine hydrophilic C11 spacer (11-amino-3,6,9-trioxaundecan-1-yl), grafted on NHS-activated Sepharose 4 FF
- binding result [1]: binds

B2: Mapt 2.2CS-PEG(C11) (ssDNA)
DNA: CCGCACGCTACGCGCATGAACCCGCGCACACGACTTGAAGTAGC
modifications: 5' amine hydrophilic C11 spacer (11-amino-3,6,9-trioxaundecan-1-yl), grafted on NHS-activated Sepharose 4 FF
- binding result [2]: binds

Binder: CCGCACGCTACGCGCATGAACCCGCGCACACGACTTGAAGTAGC (ssDNA, 5' amine C6 spacer, grafted on NHS-activated Sepharose 4 FF) [Mapt 2.2CS C6]
- binding result [3]: binds
